Experimental data taken from patent US20060046277.

Tests used:
[1] = system: GST-Z2-AMPK×3 [GST: P08515]
[2] = system: GST-Z1-AMPK×3 [GST: P08515]
[3] = system: AMPK kinase substrate (GST fusion, Table 2) [GST: P08515]
GST-Abl×1 = system: T1, GST-Abl×1
T1 sequence: AIYAAPF

[4] = system: Abl kinase substrate (GST fusion, Table 2) [GST: P08515]
GST-Z2-Abl×1 = system: T2, GST-Z2-Abl×1
T2 sequence: AIYAAPF

[5] = system: EGFR kinase substrate (GST fusion, Table 2) [GST: P08515]
[6] = system: CHK kinase substrate (GST fusion, Table 2) [GST: P08515]
[7] = system: CK1 kinase substrate (GST fusion, Table 2) [GST: P08515]
[8] = system: Src kinase substrate (GST fusion, Table 2) [GST: P08515]
[9] = system: dsDNAPK kinase substrate (GST fusion, Table 2) [GST: P08515]
[10] = system: IKK kinase substrate (GST fusion, Table 2) [GST: P08515]
[11] = system: CK2 kinase substrate (GST fusion, Table 2) [GST: P08515]
[12] = system: JNK3 kinase substrate (GST fusion, Table 2) [GST: P08515]
[13] = system: ERK kinase substrate (GST fusion, Table 2) [GST: P08515]
[14] = system: PKA kinase substrate (GST fusion, Table 2) [GST: P08515]
[15] = system: GST-Z2-Src×2 [GST: P08515]
[16] = system: GST-dsDNA×4 [GST: P08515]
[17] = system: GST-Z1-dsDNA×4 [GST: P08515]
[18] = system: GST-dsDNA×3 [GST: P08515]
GST-dsDNA×1 = system: T3, GST-dsDNA×1
T3 sequence: GGGEETQTQDQPMEEEEV

[19] = system: GST-dsDNA×2 [GST: P08515]

JNK3, sequence (P53779 whole entry): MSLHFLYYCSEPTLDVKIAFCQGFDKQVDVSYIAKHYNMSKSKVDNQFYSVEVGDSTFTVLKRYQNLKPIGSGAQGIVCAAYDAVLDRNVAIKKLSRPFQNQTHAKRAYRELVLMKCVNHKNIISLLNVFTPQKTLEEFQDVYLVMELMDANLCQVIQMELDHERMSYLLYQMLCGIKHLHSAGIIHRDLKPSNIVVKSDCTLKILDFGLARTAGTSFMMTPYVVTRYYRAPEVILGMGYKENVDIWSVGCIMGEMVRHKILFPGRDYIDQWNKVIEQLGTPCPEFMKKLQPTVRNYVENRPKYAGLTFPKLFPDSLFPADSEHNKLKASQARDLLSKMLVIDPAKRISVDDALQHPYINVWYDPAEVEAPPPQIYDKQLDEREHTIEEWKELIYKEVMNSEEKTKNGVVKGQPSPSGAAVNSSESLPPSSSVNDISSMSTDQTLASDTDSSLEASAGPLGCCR

Substance: AMPK
- phosphorylation of the substrate on beads (32P-ATP, SDS-PAGE, autoradiogram; FIG. 6) [1]: All of the protein kinase substrates reacted with their corresponding kinases
- phosphorylation of the substrate on beads (32P-ATP, SDS-PAGE, autoradiogram; FIG. 6) [2]: All of the protein kinase substrates reacted with their corresponding kinases
- Reactivity for each of the Kinase Substrates (32P phosphorylation, autoradiogram) [3]: +++++

Substance: Abl
- phosphorylation of the substrate on beads (32P-ATP, SDS-PAGE, autoradiogram; FIG. 6) (GST-Abl×1): All of the protein kinase substrates reacted with their corresponding kinases
- Reactivity for each of the Kinase Substrates (32P phosphorylation, autoradiogram) [4]: +++++
- phosphorylation of the substrate on beads (32P-ATP, SDS-PAGE, autoradiogram; FIG. 6) (GST-Z2-Abl×1): All of the protein kinase substrates reacted with their corresponding kinases
- Reactivity for each of the Kinase Substrates (32P phosphorylation, autoradiogram) [5]: +++++
- Reactivity for each of the Kinase Substrates (32P phosphorylation, autoradiogram) [3]: +++

Substance: CHK
- phosphorylation of the substrate on beads (32P-ATP, SDS-PAGE, autoradiogram; FIG. 6) (GST-CHK×5 [GST: P08515]): All of the protein kinase substrates reacted with their corresponding kinases
- Reactivity for each of the Kinase Substrates (32P phosphorylation, autoradiogram) [6]: +++++

Substance: CK1
- Reactivity for each of the Kinase Substrates (32P phosphorylation, autoradiogram) [7]: +++++
- phosphorylation of the substrate on beads (32P-ATP, SDS-PAGE, autoradiogram; FIG. 6) (GST-CK1×4 [GST: P08515]): All of the protein kinase substrates reacted with their corresponding kinases
- Reactivity for each of the Kinase Substrates (32P phosphorylation, autoradiogram) [8]: +++++
- Reactivity for each of the Kinase Substrates (32P phosphorylation, autoradiogram) [9]: +++++
- Reactivity for each of the Kinase Substrates (32P phosphorylation, autoradiogram) [10]: +

Substance: CK2
- Reactivity for each of the Kinase Substrates (32P phosphorylation, autoradiogram) [10]: +
- Reactivity for each of the Kinase Substrates (32P phosphorylation, autoradiogram) [11]: +++++
- phosphorylation of the substrate on beads (32P-ATP, SDS-PAGE, autoradiogram; FIG. 6) (GST-CK2×4 [GST: P08515]): All of the protein kinase substrates reacted with their corresponding kinases

Substance: EGFR
- Reactivity for each of the Kinase Substrates (32P phosphorylation, autoradiogram) [4]: +++++
- phosphorylation in the 4-member substrate ladder on beads (32P-ATP, SDS-PAGE, autoradiogram; FIG. 12) (GST-EGFR×3 [GST: P08515]): All of the protein kinase substrates reacted with their corresponding kinases, and cross-reactivity with other substrate was minimal
- phosphorylation of the substrate on beads (32P-ATP, SDS-PAGE, autoradiogram; FIG. 6) (GST-EGFR×3 [GST: P08515]): All of the protein kinase substrates reacted with their corresponding kinases
- Reactivity for each of the Kinase Substrates (32P phosphorylation, autoradiogram) [5]: +++++

Substance: IKK
- Reactivity for each of the Kinase Substrates (32P phosphorylation, autoradiogram) [7]: +++++
- Reactivity for each of the Kinase Substrates (32P phosphorylation, autoradiogram) [8]: +
- phosphorylation in the 4-member substrate ladder on beads (32P-ATP, SDS-PAGE, autoradiogram; FIG. 12) (GST-IKK×7 [GST: P08515]): All of the protein kinase substrates reacted with their corresponding kinases, and cross-reactivity with other substrate was minimal
- phosphorylation of the substrate on beads (32P-ATP, SDS-PAGE, autoradiogram; FIG. 6) (GST-IKK×7 [GST: P08515]): All of the protein kinase substrates reacted with their corresponding kinases
- phosphorylation of the substrate on beads (32P-ATP, SDS-PAGE, autoradiogram; FIG. 6) (GST-IKK×4 [GST: P08515]): All of the protein kinase substrates reacted with their corresponding kinases
- Reactivity for each of the Kinase Substrates (32P phosphorylation, autoradiogram) [10]: +++++
- Reactivity for each of the Kinase Substrates (32P phosphorylation, autoradiogram) [12]: +
- Reactivity for each of the Kinase Substrates (32P phosphorylation, autoradiogram) [13]: +

Substance: JNK3
- phosphorylation of the substrate on beads (32P-ATP, SDS-PAGE, autoradiogram; FIG. 6) (GST-JNK3×3 [GST: P08515]): All of the protein kinase substrates reacted with their corresponding kinases
- Reactivity for each of the Kinase Substrates (32P phosphorylation, autoradiogram) [12]: +++++
- phosphorylation in the 4-member substrate ladder on beads (32P-ATP, SDS-PAGE, autoradiogram; FIG. 12) (GST-JNK3×8 [GST: P08515]): All of the protein kinase substrates reacted with their corresponding kinases, and cross-reactivity with other substrate was minimal
- phosphorylation of the substrate on beads (32P-ATP, SDS-PAGE, autoradiogram; FIG. 6) (GST-JNK3×8 [GST: P08515]): All of the protein kinase substrates reacted with their corresponding kinases
- Reactivity for each of the Kinase Substrates (32P phosphorylation, autoradiogram) [13]: +

Substance: PKA
- Reactivity for each of the Kinase Substrates (32P phosphorylation, autoradiogram) [8]: +++++
- Reactivity for each of the Kinase Substrates (32P phosphorylation, autoradiogram) [9]: +++++
- Reactivity for each of the Kinase Substrates (32P phosphorylation, autoradiogram) [14]: +++++
- phosphorylation of the substrate on beads (32P-ATP, SDS-PAGE, autoradiogram; FIG. 6) (GST-Z1-PKA [GST: P08515]): All of the protein kinase substrates reacted with their corresponding kinases

Substance: Src
- Reactivity for each of the Kinase Substrates (32P phosphorylation, autoradiogram) [7]: +++++
- Reactivity for each of the Kinase Substrates (32P phosphorylation, autoradiogram) [8]: +++++
- Reactivity for each of the Kinase Substrates (32P phosphorylation, autoradiogram) [4]: +++++
- Reactivity for each of the Kinase Substrates (32P phosphorylation, autoradiogram) [12]: +
- phosphorylation in the 4-member substrate ladder on beads (32P-ATP, SDS-PAGE, autoradiogram; FIG. 12) [15]: All of the protein kinase substrates reacted with their corresponding kinases, and cross-reactivity with other substrate was minimal
- phosphorylation of the substrate on beads (32P-ATP, SDS-PAGE, autoradiogram; FIG. 6) [15]: All of the protein kinase substrates reacted with their corresponding kinases
- Reactivity for each of the Kinase Substrates (32P phosphorylation, autoradiogram) [3]: +++

Substance: dsDNA (DNAPK)
- phosphorylation by dsDNA PK (32P ATP, SDS-PAGE, autoradiogram; FIG. 7) [16]: autoradiogram of phosphorylated GST-dsDNA kinase peptide substrate fusion proteins with different number of the peptide repeats
- phosphorylation of the substrate on beads (32P-ATP, SDS-PAGE, autoradiogram; FIG. 6) [17]: All of the protein kinase substrates reacted with their corresponding kinases
- phosphorylation by dsDNA PK (32P ATP, SDS-PAGE, autoradiogram; FIG. 7) [18]: autoradiogram of phosphorylated GST-dsDNA kinase peptide substrate fusion proteins with different number of the peptide repeats
- Reactivity for each of the Kinase Substrates (32P phosphorylation, autoradiogram) [9]: +++++
- phosphorylation by dsDNA PK (32P ATP, SDS-PAGE, autoradiogram; FIG. 7) (GST-dsDNA×1): autoradiogram of phosphorylated GST-dsDNA kinase peptide substrate fusion proteins with different number of the peptide repeats
- phosphorylation by dsDNA PK (32P ATP, SDS-PAGE, autoradiogram; FIG. 7) [19]: autoradiogram of phosphorylated GST-dsDNA kinase peptide substrate fusion proteins with different number of the peptide repeats
- Reactivity for each of the Kinase Substrates (32P phosphorylation, autoradiogram) [14]: +++++
